Source: patent US20100015129A1

Experiments:
[1] = target: integrin αvβ3 on chick embryo sternal chondrocytes (chick) (UniProt P26008); assay: cell-based or functional assay
[2] = target: latent TGF-β1 released by human OA cartilage explants (human) (UniProt P01137); assay: cell-based or functional assay
Sequence of latent TGF-β1 released by human OA cartilage explants (human) (P01137 30-390 limits assumed): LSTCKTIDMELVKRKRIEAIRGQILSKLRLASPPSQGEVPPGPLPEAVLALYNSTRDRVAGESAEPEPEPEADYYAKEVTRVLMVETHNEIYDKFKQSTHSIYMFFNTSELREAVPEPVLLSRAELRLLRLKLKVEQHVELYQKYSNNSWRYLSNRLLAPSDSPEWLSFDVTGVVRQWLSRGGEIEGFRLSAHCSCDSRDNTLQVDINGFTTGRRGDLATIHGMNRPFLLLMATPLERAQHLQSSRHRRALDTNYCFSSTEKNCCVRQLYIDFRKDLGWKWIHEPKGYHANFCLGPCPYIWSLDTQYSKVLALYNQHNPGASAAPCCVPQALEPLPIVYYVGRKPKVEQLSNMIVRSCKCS

Sequence of integrin αvβ3 on chick embryo sternal chondrocytes (chick) (P26008 20-1034): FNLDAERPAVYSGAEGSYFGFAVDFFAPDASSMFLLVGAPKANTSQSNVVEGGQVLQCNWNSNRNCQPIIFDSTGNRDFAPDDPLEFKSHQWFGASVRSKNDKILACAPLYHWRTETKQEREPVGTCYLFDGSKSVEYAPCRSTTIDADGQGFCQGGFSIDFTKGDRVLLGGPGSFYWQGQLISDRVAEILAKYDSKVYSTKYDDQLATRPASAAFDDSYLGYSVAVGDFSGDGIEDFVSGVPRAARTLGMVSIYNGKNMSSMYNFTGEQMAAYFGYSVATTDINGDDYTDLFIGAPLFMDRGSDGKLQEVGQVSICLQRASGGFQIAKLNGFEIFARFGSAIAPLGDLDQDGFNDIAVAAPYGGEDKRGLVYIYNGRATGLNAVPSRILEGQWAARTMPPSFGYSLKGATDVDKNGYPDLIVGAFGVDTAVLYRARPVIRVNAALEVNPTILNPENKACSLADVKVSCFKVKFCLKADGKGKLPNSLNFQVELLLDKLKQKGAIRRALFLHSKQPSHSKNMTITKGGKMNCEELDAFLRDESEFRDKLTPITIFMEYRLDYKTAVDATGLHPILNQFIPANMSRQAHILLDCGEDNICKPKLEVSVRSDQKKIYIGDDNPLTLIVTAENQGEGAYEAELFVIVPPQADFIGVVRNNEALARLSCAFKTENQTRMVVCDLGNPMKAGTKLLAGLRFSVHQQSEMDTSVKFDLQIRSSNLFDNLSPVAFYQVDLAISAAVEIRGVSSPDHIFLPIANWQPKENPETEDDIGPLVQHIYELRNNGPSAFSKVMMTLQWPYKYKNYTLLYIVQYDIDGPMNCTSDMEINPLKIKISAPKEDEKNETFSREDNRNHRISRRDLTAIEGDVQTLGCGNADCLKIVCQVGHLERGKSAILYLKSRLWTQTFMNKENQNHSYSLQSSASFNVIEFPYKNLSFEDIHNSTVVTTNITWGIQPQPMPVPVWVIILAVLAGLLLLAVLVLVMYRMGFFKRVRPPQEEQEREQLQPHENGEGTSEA

Substance | decrease in AP activity of F-spondin transfected, RA stimulated chick chondrocytes [1] | active TGF-β1 in OA cartilage explant supernatants (ELISA) [2] | active TGF-β1 in OA cartilage explant supernatants (ELISA) (pg/g cartilage) [2]
LM609, integrin αvβ3 blocking antibody (Chemicon International, Cat No MAB1976Z) | 50% | – | –
recombinant human F-spondin (R&D systems) (from UniProt Q9HCB6 29-807) (ligand) | – | 225% | 550
